{"source": "patent US20120064064A1", "biological_target": "human IL1-R (human) (UniProt P14778)", "sequence (P14778 18-569)": "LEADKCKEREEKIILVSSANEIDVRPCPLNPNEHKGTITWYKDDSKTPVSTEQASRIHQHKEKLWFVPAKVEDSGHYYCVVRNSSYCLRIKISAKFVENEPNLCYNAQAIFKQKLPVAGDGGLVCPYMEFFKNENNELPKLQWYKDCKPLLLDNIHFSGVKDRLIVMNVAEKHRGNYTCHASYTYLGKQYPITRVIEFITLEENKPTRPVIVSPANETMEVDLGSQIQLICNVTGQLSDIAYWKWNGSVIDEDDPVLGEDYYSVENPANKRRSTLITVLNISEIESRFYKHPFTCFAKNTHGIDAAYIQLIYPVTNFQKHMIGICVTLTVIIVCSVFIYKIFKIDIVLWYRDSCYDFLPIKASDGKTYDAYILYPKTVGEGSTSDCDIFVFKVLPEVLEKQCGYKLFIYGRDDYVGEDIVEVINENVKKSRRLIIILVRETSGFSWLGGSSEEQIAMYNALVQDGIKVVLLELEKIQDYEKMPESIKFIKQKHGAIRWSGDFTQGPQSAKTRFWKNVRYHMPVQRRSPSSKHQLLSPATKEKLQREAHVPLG", "assay": "cell-based or functional assay", "data": [{"substance": "natural IL1-R antagonist (IL1-Ra) (from UniProt P18510 26-177) (ligand)", "values": [{"measurement": "IL-8 release assay in MRC-5 cells (IL-1a stimulated), EC50", "value": 0.074, "unit": "nM"}]}]}
